Literature values as cited in paper PMC8266389.

Legend:
Cryptic (Homo sapiens) = Cryptic (Homo sapiens) (UniProt P0CG37)
Cripto-1 (Homo sapiens) = Cripto-1 (Homo sapiens) (UniProt P13385)
BMPRII (Homo sapiens) = BMPRII (Homo sapiens) (UniProt Q13873)
ACTRIIB (Homo sapiens) = ACTRIIB (Homo sapiens) (UniProt Q13705)
ALK4 (Homo sapiens) = ALK4 (Homo sapiens) (UniProt P36896)
ACTRIIA (Homo sapiens) = ACTRIIA (Homo sapiens) (UniProt P27037)
UniProt P27037, sequence (P27037 20-135): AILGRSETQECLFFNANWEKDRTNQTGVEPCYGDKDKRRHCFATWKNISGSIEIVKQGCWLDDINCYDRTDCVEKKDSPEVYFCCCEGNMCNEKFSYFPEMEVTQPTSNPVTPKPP

UniProt P13385, sequence (P13385 31-150): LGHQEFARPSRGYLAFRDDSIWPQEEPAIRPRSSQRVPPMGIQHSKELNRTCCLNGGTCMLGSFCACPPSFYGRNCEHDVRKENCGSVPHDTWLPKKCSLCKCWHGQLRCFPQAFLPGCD
UniProt Q13873, sequence (Q13873 27-150): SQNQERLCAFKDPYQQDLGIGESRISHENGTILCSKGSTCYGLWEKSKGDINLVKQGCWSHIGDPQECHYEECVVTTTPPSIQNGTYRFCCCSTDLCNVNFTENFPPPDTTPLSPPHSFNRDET
UniProt P36896, sequence (P36896 24-126): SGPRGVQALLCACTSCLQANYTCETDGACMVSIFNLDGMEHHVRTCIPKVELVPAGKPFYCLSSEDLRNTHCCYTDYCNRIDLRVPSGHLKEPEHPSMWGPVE
UniProt Q13705, sequence (Q13705 19-137): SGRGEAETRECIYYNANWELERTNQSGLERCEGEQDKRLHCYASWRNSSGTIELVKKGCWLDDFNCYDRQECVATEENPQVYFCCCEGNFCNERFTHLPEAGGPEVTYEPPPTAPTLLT
UniProt P0CG37, sequence (P0CG37 26-158): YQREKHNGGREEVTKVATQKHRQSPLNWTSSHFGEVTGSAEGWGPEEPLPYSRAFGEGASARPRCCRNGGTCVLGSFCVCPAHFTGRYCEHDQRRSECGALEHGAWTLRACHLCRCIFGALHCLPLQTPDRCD

Nodal (from UniProt Q96S42)
Kd (Cryptic (Homo sapiens)): 2000 nM
Kd (Cripto-1 (Homo sapiens)): 16 nM
Kd (BMPRII (Homo sapiens)): 0.149 nM
Kd (ACTRIIB (Homo sapiens)): 10 nM
Kd (ALK4 (Homo sapiens)): 15 nM
Kd (ACTRIIA (Homo sapiens)): 100 nM
